The values below come from US20240336672A1 (INSTITUT PASTEUR, published 2024).

The target of assay [1] is T1, CoV-HKU1 Spike ectodomain (HKU1-CoV, UniProt Q0ZME7 14-1276).
T1 chain: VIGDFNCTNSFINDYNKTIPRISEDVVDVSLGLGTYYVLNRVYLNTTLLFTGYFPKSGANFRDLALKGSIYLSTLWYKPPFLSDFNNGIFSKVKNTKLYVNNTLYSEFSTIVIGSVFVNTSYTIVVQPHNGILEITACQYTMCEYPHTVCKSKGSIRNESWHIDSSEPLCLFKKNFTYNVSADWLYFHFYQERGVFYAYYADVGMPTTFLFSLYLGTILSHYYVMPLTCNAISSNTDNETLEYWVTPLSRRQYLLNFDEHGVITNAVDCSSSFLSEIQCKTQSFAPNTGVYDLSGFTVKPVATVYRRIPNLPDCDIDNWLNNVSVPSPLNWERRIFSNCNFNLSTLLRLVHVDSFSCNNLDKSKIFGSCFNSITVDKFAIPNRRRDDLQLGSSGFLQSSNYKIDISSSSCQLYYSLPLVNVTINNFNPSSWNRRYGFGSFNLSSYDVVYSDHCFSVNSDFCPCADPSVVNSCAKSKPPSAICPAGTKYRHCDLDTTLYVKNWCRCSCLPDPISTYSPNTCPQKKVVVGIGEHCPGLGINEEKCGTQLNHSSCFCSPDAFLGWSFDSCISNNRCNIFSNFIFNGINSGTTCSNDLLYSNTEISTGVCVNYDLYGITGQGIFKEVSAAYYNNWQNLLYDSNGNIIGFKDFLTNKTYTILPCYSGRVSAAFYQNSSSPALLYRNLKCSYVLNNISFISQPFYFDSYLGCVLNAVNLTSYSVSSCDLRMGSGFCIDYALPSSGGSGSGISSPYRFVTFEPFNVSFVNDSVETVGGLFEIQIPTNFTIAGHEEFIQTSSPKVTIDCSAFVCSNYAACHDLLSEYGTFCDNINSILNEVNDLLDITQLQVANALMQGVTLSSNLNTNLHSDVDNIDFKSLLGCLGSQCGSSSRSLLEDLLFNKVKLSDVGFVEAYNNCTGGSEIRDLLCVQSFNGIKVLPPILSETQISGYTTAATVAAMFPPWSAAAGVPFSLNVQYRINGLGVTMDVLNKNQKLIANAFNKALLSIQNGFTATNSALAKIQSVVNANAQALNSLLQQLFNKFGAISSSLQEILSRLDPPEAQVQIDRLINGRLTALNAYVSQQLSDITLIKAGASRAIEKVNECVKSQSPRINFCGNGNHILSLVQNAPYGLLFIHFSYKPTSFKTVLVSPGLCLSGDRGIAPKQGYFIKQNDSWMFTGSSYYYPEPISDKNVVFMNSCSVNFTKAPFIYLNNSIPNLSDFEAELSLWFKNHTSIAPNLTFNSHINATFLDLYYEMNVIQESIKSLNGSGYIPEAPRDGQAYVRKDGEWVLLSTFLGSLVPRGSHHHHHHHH
In words: ELISA, coated spike ectodomain.

In assay [2] the target is T2, CoV-229E Spike ectodomain (229E-CoV, UniProt P15423 16-1113).
T2 chain: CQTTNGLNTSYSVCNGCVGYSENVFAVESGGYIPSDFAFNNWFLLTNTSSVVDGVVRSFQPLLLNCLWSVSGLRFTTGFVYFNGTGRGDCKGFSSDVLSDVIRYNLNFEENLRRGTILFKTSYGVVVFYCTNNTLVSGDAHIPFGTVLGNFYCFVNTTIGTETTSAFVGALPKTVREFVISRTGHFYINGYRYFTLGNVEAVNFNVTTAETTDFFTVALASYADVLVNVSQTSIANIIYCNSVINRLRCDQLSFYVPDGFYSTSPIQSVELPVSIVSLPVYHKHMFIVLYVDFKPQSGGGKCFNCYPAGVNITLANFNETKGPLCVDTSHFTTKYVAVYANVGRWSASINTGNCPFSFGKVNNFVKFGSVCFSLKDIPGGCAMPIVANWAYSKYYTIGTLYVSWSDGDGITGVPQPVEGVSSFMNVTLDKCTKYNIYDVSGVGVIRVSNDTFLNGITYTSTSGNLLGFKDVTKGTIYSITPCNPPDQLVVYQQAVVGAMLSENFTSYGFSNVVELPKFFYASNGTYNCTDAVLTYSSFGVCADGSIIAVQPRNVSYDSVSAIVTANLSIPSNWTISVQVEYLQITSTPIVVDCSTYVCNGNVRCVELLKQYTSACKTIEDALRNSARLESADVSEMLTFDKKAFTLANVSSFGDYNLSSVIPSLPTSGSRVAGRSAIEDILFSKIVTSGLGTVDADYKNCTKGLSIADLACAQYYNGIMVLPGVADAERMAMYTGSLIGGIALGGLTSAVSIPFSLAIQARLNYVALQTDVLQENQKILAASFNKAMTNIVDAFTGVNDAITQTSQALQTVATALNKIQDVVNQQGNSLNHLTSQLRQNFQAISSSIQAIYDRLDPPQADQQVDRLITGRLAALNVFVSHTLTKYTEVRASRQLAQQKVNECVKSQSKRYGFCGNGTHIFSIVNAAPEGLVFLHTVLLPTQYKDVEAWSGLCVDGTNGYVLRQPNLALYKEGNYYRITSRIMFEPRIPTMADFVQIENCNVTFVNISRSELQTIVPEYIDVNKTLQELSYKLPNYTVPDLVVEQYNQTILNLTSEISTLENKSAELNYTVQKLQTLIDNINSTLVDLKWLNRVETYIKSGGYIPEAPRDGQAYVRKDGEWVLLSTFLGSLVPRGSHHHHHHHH
Description: ELISA, coated spike ectodomain.

B1: Cv2.3194 (recombinant human IgG1) (antibody, V domains shown)
VH: EVQLVESGGGLIQPGGSLRLSCAASGITVTSNYMSWVRQAPGKGLEWVSVIYPGGSTFYADSVKGRFTISRDNSKNTLYLQMNSLRAEDTAVYYCARDLVVYGMDVWGQGTTVTVSS
VL: EIVLTQSPGTLSLSPGERATLSCRASQSVSSSYLAWYQQKPGQAPRLLIYGASSRATGIPGRFSGSGSGTDFTLTISRLEPEDFAIYYCQQGVTFGGGTKVEIKR
Regarding B1, the binding result in assay [1] and in assay [2] was “no binding” throughout.

B2: Cv2.3235 (recombinant human IgG1) (antibody, V domains shown)
VH: EVQLVESGGGLIQPGGSLRLSCAASGFTVSRNYMSWVRQAPGKGLEWVSVIYSGGSTFYADSVKGRFTISRDNSKNTLYLQMNSLRAEDTAVYYCARDGDYYGMDVWGQGTTVTVSS
VL: DIQMTQSPSFLSASVGDRVTITCRASQGISSFLAWYQQKPGKAPKLLIYGASTLQSGVTSRFSGSGSGTEFTLTISSLQPEDFATYYCQRLDSYPPITFGQGTRLEIKR
As to B2, the binding result in assay [1] and in assay [2] was “no binding” each time.

B3: Cv2.5213 (recombinant human IgG1) (antibody, V domains shown)
VH: EVQLVESGGGLIQPGGSLRLSCAASGFTVSSNYMSWVRQAPGKGLEWVSLIYSGGSTYYADSVKGRFTISRDNSKNTLYLQMNSLRAEDTAVYYCARDLNYYGMDVWGQGATVTVSS
VL: DIQMTQSPSSLSASVGDRVTITCRASQGISSYLAWYQQKPGKAPKLLIYAASTLQSGVPSRFSGSGSGTDFTLTISSLQPEDFATYYCQQLDSYSPFTFGPGTKVDIKR
As for B3, the binding result in assay [1] and in assay [2] was “no binding” throughout.

B4: Cv2.1169 (recombinant human IgG1) (antibody)
heavy: QVQLVQSGPEVKKPGTSVKVSCKASGFTFTTSAVQWVRQARGQRLEWIGWIVVGSGNTNYAQKFQERVTITRDMSTTTAYMELSSLRSEDTAVYYCAAPYCSGGTCLDGFDIWGQGTMVTVSSASTKGPSVFPLAPSSKSTSGGTAALGCLVKDYFPEPVTVSWNSGALTSGVHTFPAVLQSSGLYSLSSVVTVPSSSLGTQTYICNVNHKPSNTKVDKKVEPKSCDKTHTCPPCPAPELLGGPSVFLFPPKPKDTLMISRTPEVTCVVVDVSHEDPEVKFNWYVDGVEVHNAKTKPREEQYNSTYRVVSVLTVLHQDWLNGKEYKCKVSNKALPAPIEKTISKAKQPREPQVYTLPPSRDELTKNQVSLTCLVKGFYPSDIAVEWESNGQPENNYKTTPPVLDSDGSFFLYSKLTVDKSRWQQGNVFSCSVMHEALHNHYTQKSLSLSPGK
light: not shown
notes: also called Cv2.1169 IgG
For the molecule B4, the binding result in assay [1] and in assay [2] was “no binding” throughout.

B5: Cv2.1353 (recombinant human IgG1) (antibody, V domains shown)
VH: EVQLVESGGGLVQPGGSLRLSCAASGVTVSSNYMNWVRQAPGKGLEWVSVIYSGGSTFYADSVKGRFIISRDNSKNTLYLQMNSLKTEDTAVYYCARDLGPMGFDIWGQGTMVTVSS
VL: DIQMTQSPSFLSASVGDRVTITCRASQGISSYLAWYQQKPGKAPKLLIYAASTLQSGVPSRFSGSGSGTEFTLTISSLQPEDFATYYCQQLNSDPPVTFGPGTKVDIKR
With B5, the binding result in assay [1] and in assay [2] was “no binding” each time.
